In US20230031280A1, “GLP-2 FUSION POLYPEPTIDES AND USES FOR TREATING AND PREVENTING GASTROINTESTINAL CONDITIONS” (SHIRE-NPS PHARMACEUTICALS, INC., priority 2017, published 2023):
Values belong to the compound of their own block, whether it stands above or below them.

Columns and labels:
[1] = NanoDSF melting temperature / thermal stability; assay type: physicochemical; settings: for NanoDSF melting temperature 1: first transition; for NanoDSF melting temperature 2: second transition
Procedure: Each of the GLP-2 peptibodies was tested by determining melting temperature with nanodifferential scanning fluorimetry (NanoDSF). NanoDSF is a measurement of protein stability over a range of temperatures, with a temperature ramp employed. The stability of tryptophan is measured by fluorescence, as reflected in a ratio of fluorescence at 350 nm to fluorescence at 330 nm. From the assay, one or more melting temperatures are determined. Because a protein in a certain state is understood to have a melting temperature, the number of melting temperatures observed reflects the number of different states.
(§1) Stability analysis was then performed using SEC-MALS and NanoDSF. For SEC-MALS, a Sepax Zenix C-150 column was used. The mobile phase buffer was 1× PBS with a final concentration of 400 mM NaCl. The flow rate was 0.8 mL per minute. 20 micrograms of total protein was injected. For NanoDSF, 10 microliters of sample was used, without normalization of the samples.
as §1

[2] = Rat pharmacokinetics, subcutaneous dosing; assay type: in vivo, Sprague-Dawley rats; settings: single dose 1 mg/ml
Procedure: (§2) In the rat, four pharmacokinetic parameters were measured for Gattex® (a GLP-2 peptide having the A2G mutation): CL, Vc, Vt and Q. The same pharmacokinetic parameters were also measured for GLP-2 peptibodies A, B, E, J, K, L, M, O and P. The data is shown in Table 5. Male Sprague-Dawley rats (3 animals per group) were injected subcutaneously into the intra-scapular region of the animal. A singles dose of test article was injected at a dose level of 1 mg/ml. The test articles were formulated in PBS pH 7.4 at a concentration of Blood samples were taken 0.083, 0.167, 0.33, 0.5, 1, 2, 6, 24, 48, 72, 120, 168, 240, and 336 hours post dose. Blood samples were collected into heparinized tubes and centrifuged for 5 minutes at 2000 xg within 10 minutes of collection. 100 μL of plasma were transferred to a 1.51 ml Eppendorf tube containing 2 μL of 50 mM PMSF. After mixing the plasma samples were frozen at −80° C. until analysis. Meso Scale Discovery (MSD) ELISA was undertaken to assay for the concentration of the GLP-2 peptibodies.
A sandwich immunoassay was developed using either an anti-Human IgG1 Fc antibody or an anti-human albumin antibody for capture of the peptibody and a sulfotag labeled anti GLP-2 antibody for detection.

[3] = biological target: T1, hFcRn (extracellular domain of the FcRN) (Homo sapiens, UniProt P55899); test: FcRn binding by surface plasmon resonance (Biacore)
T1 construct: made in house
Text: Binding to the Fc neonatal receptor (FcRN) allows for recycling of the molecules and leads to an extended in vivo serum half-life of the Fc fusion proteins. Recycling occurs as the molecules are passively taken into the cells and the pH of the endosomes is lower. That leads to binding of the Fc portion of the molecule to the FcRN. When the FcRN recycles back to the surface of the cell, the pH is then neutral and the protein is released back into the serum.
Binding to the extracellular domain of the FcRN was measured by surface plasmon resonance (SPR) using a Biacore system. Direct immobilization with FcRn was achieved via amine coupling of a CM5 chip with FcRn under the following conditions: • i) hFcRn (expressed and purified in house) is diluted in Acetate buffer pH 5.0 to 5 μg/mL. • ii) Immobilize 5 μg/mL of FcRn with target of 500 RU on CM5 chip in PBS pH 7.0 • iii) Final response 454 RU • iv) Running buffer: PBS-P+, pHed to 5.5
The kinetic binding study was done using the following protocol. Samples were diluted in PBS-P+ to 50, 25, 12.5, 6.25, 3.125, 1.56, 0.78, 0.39, 0 nM. The parameters were set as follows: • i) Association and Dissociation 300 s at Flow rate 30 μL/min • ii) Regeneration with 25 mM Tris, 150 mM NaCl pH 8.0 40 s at 60 μL/min
A measurement of the binding of the GLP-2 peptibodies to the Fc neonatal receptor (FcRN) was undertaken at pH 5.5 and pH 7.4.

[4] = SEC-MALS (Sepax Zenix C-150) peak distribution; assay type: physicochemical
Procedure: A SEC-MALS assay was performed to determine the primary state (main peak) and its molecular weight. […] The GLP-2 peptibody O (albumin fusion) eluted at a molecular weight indicative of a monomer.
as §1, §1

[5] = Rat pharmacokinetics, intravenous dosing; assay type: in vivo, Sprague-Dawley rats; settings: single dose 1 mg/ml
Procedure: as §2, with “4.” for “5.”, “intravenously either via a jugular vein or tail vein catheter.” for “subcutaneously into the intra-scapular region of the animal.”, “1.5” for “1.51”, “mixing,” for “mixing”, “analysis.” for “analysis. Meso Scale Discovery (MSD) ELISA was undertaken to assay for the concentration of the GLP-2 peptibodies.”

[6] = Table 7 (Example 6), 0.5 mg/mL sample
[7] = Table 7 (Example 6), 1.5 mg/mL sample
[8] = Table 7 (Example 6), 5 mg/mL sample
[9] = Table 7 (Example 6), 7.5 mg/mL sample

Compound: GLP-2 peptibody L: GLP-2[A2G]-GGGGGGG linker-IgG1 Fc (LALA); SEQ ID NO: 22
NanoDSF melting temperature 1 [1]: 1 = 67.5 °C
NanoDSF melting temperature 2 [1]: 2 = 80 °C
CL [2]: 80.6 mL/day/kg
Vc [2]: 127 mL/kg
ka [2]: L (0.63 ka/day,
Kd ([3]; pH 5.5): 1.72 nM
FcRN KD at pH 7.4 [3]: No binding in range tested.
SEC-MALS Zenix C-150 main peak [4]: 87.4% main peak, 148,000 g/mol
CL [5]: 2.8 mL/h/kg
Q [5]: 0.792 mL/h/kg
Vc [5]: 37.8 mL/kg
Vt [5]: 0.538 L/kg

Compound: GLP-2 peptibody P: fusion of GLP-2, a linker that is also a GLP-2 sequence, and human serum albumin 25-609; SEQ ID NO: 30
CL [5]: 7.08 mL/h/kg
Q [5]: 29.5 mL/h/kg
Vc [5]: 38.4 mL/kg
Vt [5]: 0.0439 L/kg

Compound: GLP-2 peptibody B264: GLP-2[A2G]-GGGGG linker-IgG1 Fc (LALA) without C-terminal lysine; SEQ ID NO: 1
Thermal Stability (NanoDSF) 1 ([1]; Table 6, 0.5 mg/mL sample): 1 = 67.1 °C
Thermal Stability (NanoDSF) 2 ([1]; Table 6, 0.5 mg/mL sample): 2 = 75.2 °C
Thermal Stability (NanoDSF) 1 ([1]; Table 6, 1.5 mg/mL sample): 1 = 67.0 °C
Thermal Stability (NanoDSF) 2 ([1]; Table 6, 1.5 mg/mL sample): 2 = 74.8 °C
Thermal Stability (NanoDSF) 1 ([1]; Table 6, 5 mg/mL sample): 1 = 67.2 °C
Thermal Stability (NanoDSF) 2 ([1]; Table 6, 5 mg/mL sample): 2 = 75.0 °C
Thermal Stability (NanoDSF) 1 ([1]; Table 6, 11 mg/mL sample): 1 = 67.5 °C
Thermal Stability (NanoDSF) 2 ([1]; Table 6, 11 mg/mL sample): 2 = 74.7 °C
Thermal Stability (NanoDSF) 1 [1, 6]: 1 = 67.6 °C
Thermal Stability (NanoDSF) 2 [1, 6]: 2 = 80.2 °C
Thermal Stability (NanoDSF) 1 [1, 7]: 1 = 67.6 °C
Thermal Stability (NanoDSF) 2 [1, 7]: 2 = 80.2 °C
Thermal Stability (NanoDSF) 1 [1, 8]: 1 = 67.7 °C
Thermal Stability (NanoDSF) 2 [1, 8]: 2 = 80.7 °C
Thermal Stability (NanoDSF) 1 [1, 9]: 1 = 67.8 °C
Thermal Stability (NanoDSF) 2 [1, 9]: 2 = 80.4 °C
SEC LMW ([4]; Table 6, 0.5 mg/mL sample): 17.2% LMW
SEC Main Peak ([4]; Table 6, 0.5 mg/mL sample): 82.8% Main Peak
SEC HMW ([4]; Table 6, 1.5 mg/mL sample): 2.1% HMW
SEC LMW ([4]; Table 6, 1.5 mg/mL sample): 20.8% LMW
SEC Main Peak ([4]; Table 6, 1.5 mg/mL sample): 77.2% Main Peak
SEC HMW ([4]; Table 6, 5 mg/mL sample): 2% HMW
SEC LMW ([4]; Table 6, 5 mg/mL sample): 20.1% LMW
SEC Main Peak ([4]; Table 6, 5 mg/mL sample): 77.9% Main Peak
SEC HMW ([4]; Table 6, 11 mg/mL sample): 2.1% HMW
SEC LMW ([4]; Table 6, 11 mg/mL sample): 17.4% LMW
SEC Main Peak ([4]; Table 6, 11 mg/mL sample): 80.5% Main Peak
SEC HMW [4, 6]: 2.9% HMW
SEC LMW [4, 6]: 19.7% LMW
SEC Main Peak [4, 6]: 77.4% Main Peak
SEC LMW [4, 7]: 21.4% LMW
SEC Main Peak [4, 7]: 78.6% Main Peak
SEC LMW [4, 8]: 20.8% LMW
SEC Main Peak [4, 8]: 79.2% Main Peak
SEC LMW [4, 9]: 19.9% LMW
SEC Main Peak [4, 9]: 80% Main Peak

The next lines start with results.

Kd ([3]; pH 5.5): 1.81 nM
FcRN KD at pH 7.4 [3]: No binding in range tested.
Compound: GLP-2 peptibody M: GLP-2[A2G]-GGGGSGGGGS linker-IgG1 Fc (LALA); SEQ ID NO: 25
NanoDSF melting temperature 1 [1]: 1 = 67.3 °C
NanoDSF melting temperature 2 [1]: 2 = 79.9 °C
CL [2]: 60.2 mL/day/kg
Vc [2]: 91.5 mL/kg
ka [2]: M (0.78 ka/day,
SEC-MALS Zenix C-150 main peak [4]: 81.4% main peak, 148,500 g/mol
CL [5]: 1.6 mL/h/kg
Q [5]: 7.62 mL/h/kg
Vc [5]: 12 mL/kg
Vt [5]: 0.0294 L/kg

FcRN KD at pH 5.5 ([3]; pH 5.5): substantially higher KD
Kd ([3]; pH 5.5): 1370 nM
FcRN KD at pH 7.4 [3]: No binding in range tested.
Compound: GLP-2 peptibody O: fusion protein between GLP-2, a linker, and amino acids 25-609 of human serum albumin; SEQ ID NO: 28
NanoDSF melting temperature 1 [1]: 1 = 57.6 °C
CL [2]: 742 mL/day/kg
Vc [2]: 565 mL/kg
ka [2]: O (1.26 ka/day,
SEC-MALS Zenix C-150 main peak [4]: 89.5% main peak, 76,500 g/mol
CL [5]: 5.42 mL/h/kg
Q [5]: 57.5 mL/h/kg
Vc [5]: 43.2 mL/kg
Vt [5]: 0.054 L/kg

Kd ([3]; pH 5.5): 1.38 nM
FcRN KD at pH 7.4 [3]: No binding in range tested.
Compound: GLP-2 peptibody A: GLP-2[A2G] fused without linker to IgG1 Fc (LALA); SEQ ID NO: 13
NanoDSF melting temperature 1 [1]: 1 = 67.0 °C
NanoDSF melting temperature 2 [1]: 2 = 80 °C
CL [2]: 70.7 mL/day/kg
Q [2]: 3.25 mL/h/kg
Vc [2]: 109 mL/kg
Vt [2]: 0.081 L/kg
ka [2]: A (0.45 ka/day,
CL [5]: 2.37 mL/h/kg
Q [5]: 2.42 mL/h/kg
Vc [5]: 43 mL/kg
Vt [5]: 0.079 L/kg

CL [2]: 51,649 mL/day/kg
Vc [2]: 1,794 mL/kg
clearance ([5]; male, Sprague-Dawley, plasma): 1390 mL/h/kg
Vc [5]: 2,235 mL/kg
Compound: CC[C@H](C)[C@H](NC(=O)[C@H](Cc1ccccc1)NC(=O)[C@H](CC(=O)O)NC(=O)[C@H](CCCNC(=N)N)NC(=O)[C@H](C)NC(=O)[C@H](C)NC(=O)[C@H](CC(C)C)NC(=O)[C@H](CC(N)=O)NC(=O)[C@H](CC(=O)O)NC(=O)[C@H](CC(C)C)NC(=O)[C@@H](NC(=O)[C@@H](NC(=O)[C@H](CC(N)=O)NC(=O)[C@H](CCSC)NC(=O)[C@H](CCC(=O)O)NC(=O)[C@H](CC(=O)O)NC(=O)[C@H](CO)NC(=O)[C@H](Cc1ccccc1)NC(=O)[C@H](CO)NC(=O)CNC(=O)[C@H](CC(=O)O)NC(=O)CNC(=O)[C@@H](N)Cc1c[nH]cn1)[C@@H](C)O)[C@@H](C)CC)C(=O)N[C@@H](CC(N)=O)C(=O)N[C@@H](Cc1c[nH]c2ccccc12)C(=O)N[C@@H](CC(C)C)C(=O)N[C@H](C(=O)N[C@@H](CCC(N)=O)C(=O)N[C@H](C(=O)N[C@@H](CCCCN)C(=O)N[C@H](C(=O)N[C@H](C(=O)N[C@@H](CC(=O)O)C(=O)O)[C@@H](C)O)[C@@H](C)CC)[C@@H](C)O)[C@@H](C)CC [Gattex]
